# Results: patent US6379670B1, “Methods for treatment of multiple sclerosis using peptide analogs of human myelin basic protein” (Neurocrine Biosciences, Inc., priority 1994, dated 2002)
# Key:
# Format in all cases: cell-based, human
# [1] = test system: NBI-5788-reactive or MBP-reactive T cell lines from MS patients; assay: Cross-reactivity of T cell lines (TCL) from MS patients, 3H-thymidine proliferation
# Method: To evaluate the degree of NBI-5788-specific reactivity induced by NBI-5788 treatment, we determined whether NBI-5788-reactive T cell lines generated from untreated or NBI-5788-treated patients cross-reacted with whole MBP or MBP peptide 83-99. T cell lines were generated from positive cultures in the frequency analysis by an additional cycle of co-culture with antigen. Specificity of positive lines was tested by culturing 2×10^4 T cells/well in triplicate with whole MBP, MBP83-99, NBI-5788 or medium alone in the presence of 10^5 APCs in a final volume of 200 μl/well. Two days later supernatants were pooled from replicate wells and frozen at −80° C. Wells were then pulsed with [^3H]-thymidine (1 μCi/well) for the final 18 hours of culture.
# [2] = test system: T cell lines LW 80, 88, 90 and 93; assay: Specificity and phenotype of APL-reactive T cell lines from patient; conditions: 25 μg/ml antigen
# Method: Four cell cultures from one patient ([…], 32% frequency) showing a response (> three-fold over background) were expanded into cell lines (LW 80, 88, 90 and 93) by incubation in IL-2 for 11-14 days (1-2 passages). Once sufficient cells had grown up, they were cultured with either medium alone or 25 μg/ml of either whole MBP, MBP (83-99) or APL NBI-5788. After 24 hours, the supernatants were collected and the level of cytokines determined (see FIGS. 22 to 26). The remaining cultures were pulsed with radiolabeled thymidine and the extent of incorporation determined.
# [3] = test system: peripheral blood mononuclear cells; assay: Frequency of antigen-reactive T cells in PBMC of untreated MS patients and healthy donors (split-well); set-up: mean frequency of antigen-reactive T cells / frequency of antigen-reactive T cells in healthy subjects / antigen-reactive T cells, % Positive: concentration or dose not given beside the values
# Method: Immune response to the peptide analog was assessed by measuring the frequency of proliferating peripheral blood T cells using a split-well microtiter method (i.e., number of positive wells {Δ cpm >1000, stimulation index>3} divided by the total number of wells assayed). Peripheral blood mononuclear cells (PBMC) were isolated from venous blood by Ficoll-Hypaque density gradient centrifugation, washed twice and resuspended in complete tissue culture medium (Iscove's modification of Dulbecco's medium containing 10% heat-inactivated, pooled, human A-B serum, 2 mM L-glutamine, 100 U/ml penicillin/streptomycin and 50 μg/ml gentamycin). PBMC from each patient were seeded at 10^5/well in 96 well, U-bottom microtiter plates containing 25 μg/ml whole MBP, 10 μg/ml NBI-5788 or medium alone in a volume of 200 μl. Three days later supernatants were collected and frozen at −80° C. and fresh medium containing IL-2 (10 U/ml) was added. IL-2-containg medium was refreshed on Day 7 and Day 11. On Day 14, the frequency of antigen response was determined by the “split well” technique. Briefly, cells from one primary well were split into replicate experimental wells in the presence of 10^5 freshly isolated autologous, irradiated peripheral blood mononuclear cells (APCs): one containing the original antigen (25 μg/ml) and one without antigen. Two days later supernatants were collected and the wells pulsed with 1 µCi/well [^3H]-thymidine ([…]) for the final 18 hours of culture. ^3H-Thymidine uptake was measured in a beta counter. […] The association between T cell frequency and NBI-5788 treatment was evaluated by χ^2 contingency analysis.
# [4] = test system: Dr2b-restricted T cell clone 5F6; assay: Cytokine production (TNF-α, IFN-γ) by T cell clone 5F6, EIA; conditions: 3 μM MBP peptide, 24 hours, FIG. 21
# Method: As discussed in detail below, the production of cytokines may also be assessed. In particular, TNF-α and IFN-γ production are especially interesting. These pro-inflammatory cytokines are thought to play a role in the pathogenesis of the disease. Briefly, T cell clone is incubated in the presence of stimulating MBP peptide and peptide analog or control peptide (SWM) or medium only. After a 24 hour incubation, the levels of TNF-α and IFN-γ in the supernatant are determined using commercially available EIA kits (Endogen, Cambridge, Mass.).
# The ability of the peptide analog ligand to influence cytokine production was next measured. The Dr2b-restricted T cell clone 5F6 was incubated in the presence of 3 μM MBP peptide with either 10 μM of NBI-5788 (SEQ ID NO:7) or SWM or medium only. As a control, cells were cultured in the presence of medium alone. After 24 hours, supernatants were removed and the levels of tumor necrosis factor alpha (TNF-α) and interferon-y (IFN-γ) determined using commercially available EIA kits.
# [5] = patient MS-1, dose 20 mg, TCL 4
# [6] = subject MS-2, untreated MS patient
# [7] = subject MS-3, untreated MS patient
# [8] = subject MS-7, untreated MS patient
# [9] = subject MS-8, untreated MS patient
# [10] = subject MS-9, untreated MS patient
# [11] = subject MS-10, untreated MS patient
# [12] = subject MS-11, untreated MS patient
molecule,measurement,setting,value
"Whole MBP: whole human myelin basic protein (protein, UniProt P02686 1-304, looked up) Myelin basic protein: MGNHAGKRELNAEKASTNSETNRGESEKKRNLGELSRTTSEDNEVFGEADANQNNGTSSQDTAVTDSKRTADPKNAWQDAHPADPGSRPHLIRLFSRDAPGREDNTFKDRPSESDELQTIQEDSAATSESLDVMASQKRPSQRHGSKYLATASTMDHARHGFLPRHRDTGILDSIGRFFGGDRGAPKRGSGKDSHHPARTAHYGSLPQKSHGRTQDENPVVHFFKNIVTPRTPPPSQGKGRGLSLSRFSWGAEGQRPGFGYGGRASDYKSAHKGFKGVDAQGTLSKIFKLGGRDSRSGSPMARR",proliferative response of MBP-reactive TCL to antigen,"[1]; patient MS-1, dose 20 mg, TCL 2","25,700 ± 5,266"
same,proliferative response of MBP-reactive TCL to antigen,[1]; [5],"9,498 ± 745"
same,proliferative response of NBI-5788-reactive TCL to antigen,[1]; [5],772 ± 341
same,proliferative response of MBP-reactive TCL to antigen,"[1]; patient MS-1, dose 20 mg, TCL 5","13,102 ± 1,286"
same,proliferative response of MBP-reactive TCL to antigen,"[1]; patient MS-1, dose 20 mg, TCL 10","54,562 ± 207"
same,proliferative response of MBP-reactive TCL to antigen,"[1]; patient MS-1, dose 20 mg, TCL 14","23,564 ± 854"
same,proliferative response of MBP-reactive TCL to antigen,"[1]; patient MS-1, dose 20 mg, TCL 26","48,157 ± 1,207"
same,proliferative response of NBI-5788-reactive TCL to antigen,"[1]; patient MS-1, dose 20 mg, TCL 36","2,515 ± 532"
same,proliferative response of MBP-reactive TCL to antigen,"[1]; patient MS-1, dose 20 mg, TCL 45","63,810 ± 1,117"
same,proliferative response of MBP-reactive TCL to antigen,"[1]; patient MS-2, dose 20 mg, TCL 14","16,000 ± 1,133"
same,proliferative response of MBP-reactive TCL to antigen,"[1]; patient MS-3, Pretreat., TCL 9","9,736 ± 247"
same,proliferative response of NBI-5788-reactive TCL to antigen,"[1]; patient MS-3, dose 20 mg, TCL 2","1,785 ± 66"
same,proliferative response of NBI-5788-reactive TCL to antigen,"[1]; patient MS-3, dose 20 mg, TCL 4",298 ± 41
same,proliferative response of NBI-5788-reactive TCL to antigen,"[1]; patient MS-3, dose 20 mg, TCL 18",437 ± 191
same,proliferative response of NBI-5788-reactive TCL to antigen,"[1]; patient MS-3, dose 20 mg, TCL 30",557 ± 210
same,proliferative response of MBP-reactive TCL to antigen,"[1]; patient MS-4, dose 20 mg, TCL 7","5,308 ± 1,269"
same,proliferative response of NBI-5788-reactive TCL to antigen,"[1]; patient MS-4, dose 20 mg, TCL 18","5,983 ± 5602"
same,proliferative response of NBI-5788-reactive TCL to antigen,"[1]; patient MS-5, dose 20 mg, TCL 15","13,151 ± 9,967"
same,proliferative response of NBI-5788-reactive TCL to antigen,"[1]; patient MS-5, dose 20 mg, TCL 39","6,717 ± 558"
same,proliferative response of NBI-5788-reactive TCL to antigen,"[1]; patient MS-5, dose 20 mg, TCL 43","3,584 ± 1,068"
same,proliferative response of NBI-5788-reactive TCL to antigen,"[1]; patient MS-6, dose 10 mg, TCL 22","2,167 ± 53"
same,proliferative response of NBI-5788-reactive TCL to antigen,"[1]; patient MS-6, dose 10 mg, TCL 38",935 ± 65
same,proliferative response of NBI-5788-reactive TCL to antigen,"[1]; patient MS-7, dose 5 mg, TCL 12","1,343 ± 498"
same,proliferative response of NBI-5788-reactive TCL to antigen,"[1]; patient MS-7, dose 5 mg, TCL 28","2,326 ± 1,300"
same,proliferative response of MBP-reactive TCL to antigen,"[1]; patient MS-7, dose 5 mg, TCL 46","17,019 ± 2,294"
same,proliferative response of MBP-reactive TCL to antigen,"[1]; patient MS-8, Placebo, TCL 26","68,704 ± 19,348"
same,proliferative response of MBP-reactive TCL to antigen,"[1]; patient MS-8, Placebo, TCL 28","47,279 ± 4,539"
same,proliferative response of MBP-reactive TCL to antigen,"[1]; patient MS-8, Placebo, TCL 38","63,253 ± 5,006"
same,proliferative response of MBP-reactive TCL to antigen,"[1]; patient MS-8, Pretreat., TCL 22","91,447 ± 3,378"
same,proliferative response of MBP-reactive TCL to antigen,"[1]; patient MS-8, Pretreat., TCL 31","7,379 ± 123"
same,proliferative response of MBP-reactive TCL to antigen,"[1]; patient MS-8, Pretreat., TCL 47","47,975 ± 10,326"
same,thymidine incorporation of T cell line,[2]; Line 80 of patient,"1,457 ± 195 cpm"
same,thymidine incorporation of T cell line,[2]; Line 88 of patient,977 ± 121 cpm
same,thymidine incorporation of T cell line,[2]; Line 90 of patient,"1,604 ± 328 cpm"
same,thymidine incorporation of T cell line,[2]; Line 93 of patient,630 ± 28 cpm
same,"antigen-reactive T cells, Positive/total wells",[3]; Total of healthy donors,3/96
same,"antigen-reactive T cells, Positive/total wells",[3]; Total of untreated MS patients,56/312
same,"antigen-reactive T cells, % Positive",[3]; healthy donor HD-1,6.3%
same,"antigen-reactive T cells, Positive/total wells",[3]; healthy donor HD-1,3/48
same,"antigen-reactive T cells, % Positive",[3]; healthy donor HD-2,0%
same,"antigen-reactive T cells, Positive/total wells",[3]; healthy donor HD-2,0/48
same,"antigen-reactive T cells, % Positive",[3]; [6],6.8%
same,"antigen-reactive T cells, Positive/total wells",[3]; [6],3/44
same,"antigen-reactive T cells, % Positive",[3]; [7],25.0%
same,"antigen-reactive T cells, Positive/total wells",[3]; [7],11/44
same,"antigen-reactive T cells, % Positive",[3]; [8],11.4%
same,"antigen-reactive T cells, Positive/total wells",[3]; [8],5/44
same,"antigen-reactive T cells, % Positive",[3]; [9],52.3%
same,"antigen-reactive T cells, Positive/total wells",[3]; [9],23/44
same,"antigen-reactive T cells, % Positive",[3]; [10],16.7%
same,"antigen-reactive T cells, Positive/total wells",[3]; [10],8/48
same,"antigen-reactive T cells, % Positive",[3]; [11],2.3%
same,"antigen-reactive T cells, Positive/total wells",[3]; [11],1/44
same,"antigen-reactive T cells, % Positive",[3]; [12],11.4%
same,"antigen-reactive T cells, Positive/total wells",[3]; [12],5/44
same,frequency of antigen-reactive T cells in healthy subjects,"[3]; two healthy subjects, MBP-reactive cells detected in one of two",6.3%
same,mean frequency of antigen-reactive T cells,[3]; untreated MS patients (n=7),18.0±6.3%
same,IFN-γ production,[4],~160 pg/mL
